Data from patent US11653679B2, “High-purity steviol glycosides” (PureCircle Sdn Bhd, priority 2014, dated 2023).
Like-named read-outs stand apart in the source and are kept apart here.

Legend:
Assay type in all cases: biochemical
[1] = Transformation of Rebaudioside D to Rebaudioside M with UGT76G1 (Examples 6, 13), HPLC; details: per mL of lysate; 1 U transforms 1 μmol in 1 hour at 30° C. and pH 7.2
Description: The total volume of the reaction was 2 mL with the following composition: 50 mM sodium phosphate buffer pH 7.2, 3 mM MgCl2, 3.8 mM UDP-glucose, 0.5 mM Rebaudioside D and 180 μL of in-vitro produced UGT76G1. The reactions were run at 30° C. on an orbitary shaker at 135 rpm. For each sample, 400 μL of reaction mixture was quenched with 40 μL of 2N H2SO4 and 360 μL of 60% MeOH. After centrifugation, the supernatant was analyzed by HPLC (CAD).
(§1) Activity tests were performed on a 5 mL scale with 500 μL of thawed lysate for the transformation of Stevioside to Rebaudioside A and Rebaudioside D to Rebaudioside M using 0.5 mM of substrate, 2.5 mM of UDP-Glucose and 3 mM MgCl2 in 50 mM Sodium Phosphate buffer at pH 7.2. Samples were taken and analyzed by HPLC.

[2] = Transformation of Stevioside to Rebaudioside A with UGT76G1 lysate (Examples 4, 13), HPLC; details: per mL of lysate; 1 U transforms 1 μmol in 1 hour at 30° C. and pH 7.2
Description: The total volume of the reaction was 5.0 mL with the following composition: 50 mM sodium phosphate buffer pH 7.2, 3 mM MgCl2, 2.5 mM UDP-glucose, 0.5 mM Stevioside and 500 μl, of UGT76G1 thawed lysate. The reactions were run at 30° C. on an orbitary shaker at 135 rpm. For each sample, 460 μL of the reaction mixture was quenched with 40 μL of 2N H2SO4 and 420 μL of methanol/water (6/4). The samples were immediately centrifuged and kept at 10° C. before analysis by HPLC (CAD).
as §1

[3] = Activity of in-vivo produced enzymes for transformation of Rebaudioside A (Example 22)
Description: Activity tests were performed at 5 mL scale with 1,000 μL of thawed lysate for the transformation of Rebaudioside A using 0.5 mM of substrate, 2.5 mM of UDP-Glucose and 3 mM MgCl2 in 50 mM Sodium Phosphate buffer at pH 7.2. Samples were taken and analyzed by HPLC.
(§2) The HPLC assay was performed as described in EXAMPLE 20.

[4] = Rubusoside conversion products with UGTSL, UGTSL2, UGTLB by LCMS (Example 33); details: reaction time UGTSL2 2 hrs, UGTLB 5 hrs, UGTSL 45 hrs
Description: (§3) Conversion of stevioside with UGTSL and UGTSL2 was conducted in similar manner to Example 28, and the conversion of rubusoside with UGTSL and UGTSL2 was conducted similarly to Example 29. Conversions of rubusoside and stevioside with UGTLB was conducted similarly to Example 32.
(§4) The reaction mixtures were analyzed by LCMS to determine all reaction products.

[5] = Activity for Stevioside to Rebaudioside E conversion with UGTSL, UGTSL2, UGTLB (Examples 28, 32); details: reaction time UGTSL 22 h., UGTSL2 2 h., 600 μL lysate, based on initial concentration of Stevioside
Description: (§5) Activity tests were performed at 3 mL scale with 600 μL of lysate for the transformation of Stevioside using 0.5 mM of substrate, 2.5 mM of UDP-Glucose and 3 mM MgCl2 in 50 mM Sodium Phosphate buffer at pH 7.2. Samples were taken and analyzed by HPLC. HPLC Analysis. The HPLC assay was performed as described in EXAMPLE 20.
as §5, with “HPLC.” for “HPLC. HPLC Analysis.”, “corresponding chromatograms are depicted” for “HPLC assay was performed as described”, “FIG. 63a.” for “EXAMPLE 20.”

[6] = Stevioside conversion products with UGTSL, UGTSL2, UGTLB by LCMS (Example 33); details: reaction time UGTSL2 2 hrs, UGTLB 2 hrs, UGTSL 22 hrs
Description: as §3, §4

[7] = LC-MS of reaction mixtures of GI No. 460409128 with Rebaudioside A (Example 23)
Description: The reaction mixtures representing GI No. 460409128, particularly the sample “12400 S115N05A7 T24h 130627ABA” of EXAMPLE 20 (hereinafter S115N05A7), and the sample “12400 S129N04 T45h 130712ABA” of EXAMPLE 22 (hereinafter S129N04) were additionally assayed by LC-MS to identify the unknown glycosides. An Agilent 1200 series HPLC system, equipped with binary pump (G1312B), autosampler (G1367D), thermostatted column compartment (G1316B), DAD detector (G1315C), connected with Agilent 6110A MSD, and interfaced with “LC/MSD Chemstation” software, was used.
The compound observed on LCMS system at 3.5 min, corresponds to compound “Unknown@4.508” in sample “S115N05A7” (EXAMPLE 20), and compound “Unknown@RT4.526” in sample “S129N04” (EXAMPLE 22).
The ratio of these compounds and the LCMS chromatograms are provided below.

[8] = Catalytic test Rebaudioside A to Rebaudioside D with in-vitro expressed UDP-glucosyltransferases (Examples 20, 21), HPLC
Description: The prepared expression medium mix was added to the plasmid solution and the solution was allowed to incubate at 30° C. for 3 hours while mixing the mixture every 45 minutes. 5 μL of the mixture was frozen whereas the remainder was used for the catalytic test for the conversion of Rebaudioside A to Rebaudioside D.
(§6) 430 μL of a reaction mixture containing 0.5 mM Rebaudioside A, 3 mM MgCl2, 50 mM phosphate buffer (pH7.2) and 2.5 mM UDP-glucose was added to a 1.5 mL sterile microtube. 52 μl of the enzyme expression medium was added and the resulting mixture was allowed to react at 30° C. for 24 hours. 125 μL samples were taken after 2 hours, 16 hours and 24 hours and added to a 115 μL of 60% methanol and 10 μL of 2 N H2SO4. The quenched sample was centrifuged at 18,000 g for 2 minutes at RT. 200 μL was transferred to an HPLC vial and analyzed.
The HPLC assay was performed as follows:
as §6, with “μL” for “μl”, “to” for “to an”
as §2

[9] = Activity for Rubusoside to Rebaudioside E conversion with UGTSL, UGTSL2, UGTLB (Examples 29, 32); details: reaction time UGTSL 45 h., UGTSL2 2 h., 600 μL lysate, based on initial concentration of Rubusoside
Description: as §5, with “Rubusoside” for “Stevioside”, “HPLC.” for “HPLC. HPLC Analysis.”
Activity tests were performed at 3 mL scale with 600 μL of lysate for the transformation of Rubusoside using 0.5 mM of substrate, 2.5 mM of UDP-Glucose and 3 mM MgCl2 in 50 mM Sodium Phosphate buffer at pH 7.2. Samples were taken and analyzed by HPLC. The corresponding chromatograms are depicted in FIG. 63b.

[10] = 0.5 mM substrate, 2.5 mM UDP-Glucose, pH 7.2
[11] = 0.5 mM Rebaudioside A, 30° C., HPLC

B1: Example 8: UGT76G1 lysate prepared by pET30a+ plasmid and Tuner (DE3) expression strain (protein, UniProt Q6VAB4 1-458, looked up)
UDP-glycosyltransferase 76G1: MENKTETTVRRRRRIILFPVPFQGHINPILQLANVLYSKGFSITIFHTNFNKPKTSNYPHFTFRFILDNDPQDERISNLPTHGPLAGMRIPIINEHGADELRRELELLMLASEEDEEVSCLITDALWYFAQSVADSLNLRRLVLMTSSLFNFHAHVSLPQFDELGYLDPDDKTRLEEQASGFPMLKVKDIKSAYSNWQILKEILGKMIKQTKASSGVIWNSFKELEESELETVIREIPAPSFLIPLPKHLTASSSSLLDHDRTVFQWLDQQPPSSVLYVSFGSTSEVDEKDFLEIARGLVDSKQSFLWVVRPGFVKGSTWVEPLPDGFLGERGRIVKWVPQQEVLAHGAIGAFWTHSGWNSTLESVCEGVPMIFSDFGLDQPLNARYMSDVLKVGVYLENGWERGEIANAIRRVMVDEEGEYIRQNARVLKQKADVSLMKGGSSYESLESLVSYISSL
modifications: E. coli Tuner (DE3) lysate, pET30a+
notes: UGT76G1 lysate prepared by pET30a+ plasmid and Tuner (DE3) expression strain
[1]
  Transformation activity Rebaudioside D to Rebaudioside M: 0.40 U mL^−1
[2]
  Transformation activity Stevioside to Rebaudioside A: 33 U mL^−1

B2: Example 11: UGT76G1 lysate prepared by pCOLDIII plasmid and ArcticExpress expression strain (protein, UniProt Q6VAB4 1-458, looked up)
UDP-glycosyltransferase 76G1: B1 UDP-glycosyltransferase 76G1
modifications: E. coli ArcticExpress lysate, pCOLDIII
notes: UGT76G1 lysate prepared by pCOLDIII plasmid and ArcticExpress expression strain
[1]
  Transformation activity Rebaudioside D to Rebaudioside M: 0.11 U mL^−1
[2]
  Transformation activity Stevioside to Rebaudioside A: 15 U mL^−1

B3: Example 9: UGT76G1 lysate prepared by pMAL plasmid and BL21 expression strain (protein, UniProt Q6VAB4 1-458, looked up)
UDP-glycosyltransferase 76G1: B1 UDP-glycosyltransferase 76G1
modifications: E. coli lysate, pMAL vector
notes: UGT76G1 lysate prepared by pMAL plasmid and BL21 expression strain
[1]
  Transformation activity Rebaudioside D to Rebaudioside M: 0.15 U mL^−1
[2]
  Transformation activity Stevioside to Rebaudioside A: 20 U mL^−1

B4: Example 10: UGT76G1 lysate prepared by pMAL plasmid and ArcticExpress expression strain (protein, UniProt Q6VAB4 1-458, looked up)
UDP-glycosyltransferase 76G1: B1 UDP-glycosyltransferase 76G1
modifications: E. coli lysate, pMAL
notes: UGT76G1 lysate prepared by pMAL plasmid and ArcticExpress expression strain
[1]
  Transformation activity Rebaudioside D to Rebaudioside M: 0.25 U mL^−1
[2]
  Transformation activity Stevioside to Rebaudioside A: 15 U mL^−1

B5: gi460409128_XP_004249992.1: cyanidin-3-O-glucoside 2-O-glucuronosyltransferase-like [Solanum lycopersicum], SEQ ID NO:5; S129N04 is its Example 22 reaction sample (protein, listed as Solanum lycopersicum)
chain: MSPKLHKELFFHSLYKKTRSNHTMATLKVLMFPFLAYGHISPYLNVAKKLADRGFLIYFCSTPINLKSTIEKIPEKYADSIHLIELHLPELPQLPPHYHTTNGLPPNLNQVLQKALKMSKPNFSKILQNLKPDLVIYDILQRWAKHVANEQNIPAVKLLTSGAAVFSYFFNVLKKPGVEFPFPGIYLRKIEQVRLSEMMSKSDKEKELEDDDDDDDLLVDGNMQIMLMSTSRTIEAKYIDFCTALTNWKVVPVGPPVQDLITNDVDDMELIDWLGTKDENSTVFVSFGSEYFLSKEDMEEVAFALELSNVNFIWVARFPKGEERNLEDALPKGFLERIGERGRVLDKFAPQPRILNHPSTGGFISHCGWNSAMESIDFGVPIIAMPMHLDQPMNARLIVELGVAVEIVRDDDGKIHRGEIAETLKGVITGKTGEKLRAKVRDISKNLKTIRDEEMDAAAEELIQLCRNGN
[3]; 0.5 mM, in-vivo produced enzyme lysate
  Conversion after 45 hrs.: 62.1%
[3]; after 45 hrs.
  Reb D selectivity: 43.6%
[4]
  LC-MS, peak area ratio (%): REb E: 35.88%
  LC-MS, peak area ratio (%): Reb D: 3.45%
  LC-MS, peak area ratio (%): Rub: 7.82%
  LC-MS, peak area ratio (%): Stev: 2.37%
  LC-MS, peak area ratio (%): Unknown peak #1 (MW804) RT 30.70 min: 20.38%
  LC-MS, peak area ratio (%): Unknown peak #2 (MW804) RT 49.50 min: 27.75%
  LC-MS, peak area ratio (%): Unknown peak #3 (MW804) RT 50.40 min: 2.35%
[5]; 0.5 mM Stevioside
  Rebaudioside E formation: 46%
[5]; [10]
  Stevioside conv. (reaction time): 74% (22 h.)
[6]
  LC-MS, peak area ratio (%): Reb D: 0.54%
  LC-MS, peak area ratio (%): Reb E: 49.68%
  LC-MS, peak area ratio (%): Stev: 25.24%
  LC-MS, peak area ratio (%): Unknown peak #1 (MW966) RT = 22.60 min: 3.97%
  LC-MS, peak area ratio (%): Unknown peak #2 (MW966) RT = 26.50 min: 20.56%
[7]
  Steviol glycoside conversion in reaction mixture, Reb A: 49.00 % area
  Steviol glycoside conversion in reaction mixture, Reb D: 23.73 % area
  Steviol glycoside conversion in reaction mixture, Reb UNK (reb D2): 21.22 % area
  Steviol glycoside conversion in reaction mixture, Unknown@RT3.5 (reb M2): 6.05 % area
[7]; listed as S115N05A7
  Steviol glycoside conversion in reaction mixture, Reb A: 53.24 % area
  Steviol glycoside conversion in reaction mixture, Reb D: 20.35 % area
  Steviol glycoside conversion in reaction mixture, Reb UNK (reb D2): 19.93 % area
  Steviol glycoside conversion in reaction mixture, Unknown@RT3.5 (reb M2): 6.47 % area
[8]; [11]
  Steviol glycoside conversion in reaction mixture, Reb A: 46.7 % area
  Steviol glycoside conversion in reaction mixture, Reb UNK (later identified as reb D2): 23.3 % area
[8]; in-vitro expressed enzyme
  Conversion RebA to RebD: Active
[9]; 0.5 mM Rubusoside
  Rebaudioside E formation: 27%
[9]; [10]
  Rubusoside conv. (reaction time): 70% (45 h.)
